Biological target: trypsin
Assay: Inhibition constant Ki, steady-state release of p-nitroaniline, trypsin
Assay type: biochemical
Conditions: only inhibitor concentration varied
Protocol: The determination of the inhibition constants Ki is carried out according to N. Braun et al. [Biol. Chem. Hoppe-Seyler 368, 299-308 (1987)] by measuring the steady-state reaction rate of the release of p-nitroaniline from proteinase-inhibitor substrate mixtures. Only the inhibitor concentration is varied. Since the curve OD405 vs. time was linear, the release of p-nitroaniline is entered at 10 to 20 minutes. Ki can be determined from the various slopes. The proteinases used are human leukocyte elastase (HLE), chymotrypsin and trypsin.

- Inhibition constants, trypsin Ki (M): no inhibition
B1: Eglin C (protein, UniProt P01051 1-70, looked up)
Eglin C: TEFGSELKSFPEVVGKTVDQAREYFTLHYPQYDVYFLPEGSPVTLDLRYNRVRVFYNPGTNVVNHVPHVG

— patent publication US5180667A, “Genes encoding eglin C mutants” (Ciba-Geigy Corporation, priority 1988, dated 1993)
